Molecular target: PAC-1
Assay: flow cytometry on cells
Conditions: read off a plot
[1] = no treatment (CON), parent: est. 0
[2] = FITC-PAC-1 5 µg/ml, DTT + PT25-2, parent: est. 36
[3] = FITC-PAC-1 5 µg/ml, DTT, parent: est. 13
[4] = FITC-PAC-1 5 µg/ml, mAb PT25-2, parent: est. 26

| Substance | response (DTT + PT25-2, parent: est. 36) | response (DTT, parent: est. 12) | response (mAb PT25-2, parent: est. 26) | response [1] | response [2] | response [3] | response [4] | response (FITC-PAC-1 5 µg/ml, no treatment (CON), parent: est. 0) |
| --- | --- | --- | --- | --- | --- | --- | --- | --- |
| normal integrin αIIbβ3 (from UniProt P08514;P05106) αIIb:F992A; αIIb:F993A | 37 NNFI | 28 NNFI | 34 NNFI | 24 NNFI | – | – | – | – |
| normal integrin αIIbβ3 (from UniProt P08514;P05106) αIIb:K321C; αIIb:F992A; αIIb:F993A; β3:E358C | 38 NNFI | 23 NNFI | 5.5 NNFI | 2.7 NNFI | – | – | – | – |
| normal integrin αIIbβ3 (from UniProt P08514;P05106) αIIb:K321C; αIIb:F992A; αIIb:F993A; β3:R360C | 20 NNFI | 13 NNFI | 9.9 NNFI | 5.5 NNFI | – | – | – | – |
| normal integrin αIIbβ3 (from UniProt P08514;P05106) αIIb:K321C; β3:E358C | – | – | – | – | 38 NNFI | 19 NNFI | 6.2 NNFI | 0.7 NNFI |
| normal integrin αIIbβ3 (from UniProt P08514;P05106) αIIb:K321C; β3:R360C | – | – | – | – | 28 NNFI | 14 NNFI | 9.7 NNFI | – |

Reference: paper PMC3857192
